Series [1] deals with T1, Fur (ferric uptake regulator) (Staphylococcus aureus) (UniProt A0A0H2XGT2).
T1 sequence: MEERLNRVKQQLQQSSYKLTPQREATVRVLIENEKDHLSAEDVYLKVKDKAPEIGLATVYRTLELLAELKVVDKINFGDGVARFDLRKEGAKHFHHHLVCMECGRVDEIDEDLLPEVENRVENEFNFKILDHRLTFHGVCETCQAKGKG
Description: EMSA.

The target in series [2] is T2, purified S. aureus Fur (S. aureus) (UniProt P0A032).
T2 sequence: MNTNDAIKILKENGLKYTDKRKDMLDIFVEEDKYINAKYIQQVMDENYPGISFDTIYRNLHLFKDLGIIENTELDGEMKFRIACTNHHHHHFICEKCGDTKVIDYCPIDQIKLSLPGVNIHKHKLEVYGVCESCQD

For “CTTTAGTAAAATCATAAATAATAATGATTATCATTGTCAATATTTATTTTATAATCAATTTATTATTGTTATACGAAAATAGATGTGCTAGTATAATTGATAACCATTATCAATTGCAATGGTTAATC (double strand) [isdC operator (two Fur boxes), 128 bp PCR product]”, the binding result in series [1] was “binds”.

B1: purified S. aureus Fpa (natural protein)
chain: MAKQATMKNAALKQLTKDADEILHLIKVQLDNLTLPSCPLYEEVLDTQMFGLQKEVDFAVKLGLVDREDGKQIMLRLEKELSKLHEAFTLV
In the case of B1, in series [2], the EMSA: association of Fur (40 µM) with isdC operator DNA, Fpa titrated in (0-40 µM by the legend, 0-80 µM by the methods), with 100 µM MnCl2 came to 20 µM.

The values above are taken from publication PMC11559061.
